Patent US20200024330A1

Tests used:
Assay in all cases: cell-based or functional assay
[1] = biological target: HIV-1 Env of isolate 92WR020 (HIV-1)
[2] = biological target: HIV-1 Env of isolate 92WR021 (HIV-1)
[3] = biological target: HIV-1 Env of isolate 92WR009 (HIV-1)
[4] = biological target: HIV-1 Env of isolate MGRM-A-009 (HIV-1)
[5] = biological target: HIV-1 Env of isolate 93UG077 (HIV-1)
[6] = biological target: HIV-1 Env of isolate MGRM-A-007 (HIV-1)
[7] = biological target: HIV-1 92RW020 envelope glycoprotein (Env) (HIV-1)
[8] = biological target: HIV-1 Env of isolate MGRM-A-001 (HIV-1)
[9] = biological target: HIV-1 Env of isolate 92WR024 (HIV-1)
[10] = biological target: HIV-1 NL43 envelope glycoprotein (Env) (HIV-1)
[11] = biological target: HIV-1 JR-CSF Env G324A (HIV-1 isolate JR-CSF) (UniProt P20871)
[12] = biological target: HIV-1 Env of isolate MGRM-A-004 (HIV-1)
[13] = biological target: HIV-1 93IN905 envelope glycoprotein (Env) (HIV-1)
[14] = biological target: HIV-1 APV13 envelope glycoprotein (Env) (HIV-1)
[15] = biological target: HIV-1 Env of isolate MGRM-A-012 (HIV-1)
[16] = biological target: HIV-1 Env of isolate 92UG037 (HIV-1)
[17] = biological target: HIV-1 Env of isolate MGRM-A-002 (HIV-1)
[18] = biological target: HIV-1 Env of isolate MGRM-AE-001 (HIV-1)
[19] = biological target: HIV-1 Env of isolate VLGCA1 (HIV-1)
[20] = biological target: HIV-1 Env of isolate 92BR020 (HIV-1)
[21] = biological target: HIV-1 93UG077 envelope glycoprotein (Env) (HIV-1)
[22] = biological target: HIV-1 Env of isolate 92RW008 (HIV-1)
[23] = biological target: HIV-1 Env of isolate MGRM-AE-002 (HIV-1)
[24] = biological target: HIV-1 MGRM-C-026 envelope glycoprotein (Env) (HIV-1)
[25] = biological target: HIV-1 Env of isolate MGRM-A-010 (HIV-1)
[26] = biological target: HIV-1 Env of isolate 94UG103 (HIV-1)
[27] = biological target: HIV-1 Env of isolate CMU02 (HIV-1)
[28] = biological target: HIV-1 Env of isolate MGRM-A-011 (HIV-1)
[29] = biological target: HIV-1 Env of isolate 93WR029 (HIV-1)
[30] = biological target: HIV-1 Env of isolate 92WR026 (HIV-1)
[31] = biological target: HIV-1 Env of isolate MGRM-A-014 (HIV-1)
[32] = biological target: HIV-1 94UG103 envelope glycoprotein (Env) (HIV-1)
[33] = biological target: HIV-1 Env of isolate MGRM-A-008 (HIV-1)
[34] = biological target: HIV-1 JRCSF envelope glycoprotein (Env) (HIV-1) (UniProt P20871)
[35] = biological target: HIV-1 MGRM-C-028 envelope glycoprotein (Env) (HIV-1)
[36] = biological target: HIV-1 Env of isolate MGRM-A-003 (HIV-1)
[37] = biological target: HIV-1 Env of isolate MGRM-A-013 (HIV-1)

B1: PGT-123 (antibody, V domains shown)
VH: QLHLQESGPGLVKPPETLSLTCSVSGASINDAYWSWIRQSPGKRPEWVGYVHHSGDTNYNPSLKRRVTFSLDTAKNEVSLKLVDLTAADSATYFCARALHGKRIYGIVALGELFTYFYMDVWGKGTAVTVSS
VL: SSMSVSPGETAKISCGKESIGSRAVQWYQQKPGQPPSLIIYNNQDRPAGVPERFSASPDFRPGTTATLTITNVDAEDEADYYCHIYDARGGTNWVFDRGTTLTVL
IC50 (µg/mL), pseudovirus neutralization [1]: 0.002 µg/mL
IC50 (µg/mL), pseudovirus neutralization [2]: 0.005 µg/mL
IC50 (µg/mL), pseudovirus neutralization [3]: 15.7 µg/mL
IC50 (µg/mL), pseudovirus neutralization [4]: 0.004 µg/mL
IC50 (µg/mL), pseudovirus neutralization [5]: 0.028 µg/mL
IC50 (µg/mL), pseudovirus neutralization [6]: > 50 µg/mL
IC50 neutralization [7]: 3.8 ng/mL
IC50 (µg/mL), pseudovirus neutralization [8]: > 50 µg/mL
IC50 (µg/mL), pseudovirus neutralization [9]: > 50 µg/mL
IC50 neutralization [10]: > 10 µg/mL
Fold IC50 increase relative to wild-type [11]: 14.5 fold
IC50 (µg/mL), pseudovirus neutralization [12]: > 50 µg/mL
IC50 neutralization [13]: 7.1 ng/mL
IC50 neutralization [14]: 0.222 µg/mL
IC50 (µg/mL), pseudovirus neutralization [15]: 0.192 µg/mL
IC50 (µg/mL), pseudovirus neutralization [16]: 0.023 µg/mL
IC50 (µg/mL), pseudovirus neutralization [17]: 0.011 µg/mL
IC50 (µg/mL), pseudovirus neutralization [18]: > 50 µg/mL
IC50 (µg/mL), pseudovirus neutralization [19]: > 50 µg/mL
Primary Neutralization Index (B cell culture well 4858 P8) [20]: 2.8
IC50 neutralization [21]: 0.0303 µg/mL
IC50 (µg/mL), pseudovirus neutralization [22]: 0.003 µg/mL
IC50 (µg/mL), pseudovirus neutralization [23]: > 50 µg/mL
IC50 neutralization [24]: 3.1 ng/mL
IC50 (µg/mL), pseudovirus neutralization [25]: 0.705 µg/mL
IC50 (µg/mL), pseudovirus neutralization [26]: 0.678 µg/mL
Primary Neutralization Index (B cell culture well 4858 P8) [26]: 1.1
IC50 (µg/mL), pseudovirus neutralization [27]: > 50 µg/mL
IC50 (µg/mL), pseudovirus neutralization [28]: > 50 µg/mL
IC50 (µg/mL), pseudovirus neutralization [29]: > 50 µg/mL
IC50 (µg/mL), pseudovirus neutralization [30]: 0.012 µg/mL
IC50 (µg/mL), pseudovirus neutralization [31]: 0.003 µg/mL
IC50 neutralization [32]: 0.846 µg/mL
IC50 (µg/mL), pseudovirus neutralization [33]: > 50 µg/mL
IC50 neutralization [34]: 0.0423 µg/mL
IC50 neutralization [35]: 0.443 µg/mL
IC50 (µg/mL), pseudovirus neutralization [36]: 0.495 µg/mL
IC50 (µg/mL), pseudovirus neutralization [37]: 0.565 µg/mL
